Experimental data reported in paper PMC4417118 (Genome Research, 2015).

Molecular target: the molecule itself
Assay: native gel or EMSA

Protein | stoichiometry N
His-CRMP1 (collapsin response mediator protein 1, wild type) (natural protein) not shown | 4
His-CRMP1-D408V (natural protein) not shown | 4
